Results published in US20140303356A1.
Read-outs that look alike come from different tables or passages of the source.

Tests used:
[1] = biological target: CH2-CH3 construct G1 (human); assay: native MS, monomer-dimer equilibrium of CH2-CH3 fragment
[2] = biological target: CH2-CH3 construct G1-K370T (human); assay: as above
[3] = biological target: CH2-CH3 construct G1-K409R (human); assay: as above
[4] = biological target: CH2-CH3 construct G1-K409R (human); assay: native MS, monomer-dimer equilibrium of CH2-CH3 fragment, homodimer
[5] = biological target: CH2-CH3 construct G1-T350I (human); assay: native MS, monomer-dimer equilibrium of CH2-CH3 fragment
[6] = biological target: CH2-CH3 construct G4 (human); assay: as above
[7] = biological target: CH2-CH3 construct G4-E357T (human); assay: as above
[8] = biological target: CH2-CH3 construct G4-F405A (human); assay: as above
[9] = biological target: CH2-CH3 construct G4-F405L (human); assay: as above
[10] = biological target: CH2-CH3 construct G4-K370E (human); assay: as above
[11] = biological target: CH2-CH3 construct G4-K370Q (human); assay: as above
[12] = biological target: CH2-CH3 construct G4-L351K (human); assay: as above
[13] = biological target: CH2-CH3 construct G4-R409A (human); assay: as above
[14] = biological target: CH2-CH3 construct G4-R409K (human); assay: as above
[15] = biological target: CH2-CH3 construct G4-R409L (human); assay: as above
[16] = biological target: CH2-CH3 construct G4-R409M (human); assay: as above
[17] = biological target: CH2-CH3 construct G4-R409T (human); assay: as above
[18] = biological target: CH2-CH3 construct G4-R409W (human); assay: as above
[19] = biological target: CH2-CH3 construct G4-S364D (human); assay: as above
[20] = biological target: IgG1-7D8-K409H (human) [IgG part: P01857]; assay: cell-based or functional assay
[21] = biological target: IgG1-7D8-K409R (human) [IgG part: P01857]; assay: cell-based or functional assay
[22] = biological target: IgG1-7D8-K409G (human) [IgG part: P01857]; assay: cell-based or functional assay
[23] = biological target: IgG1-7D8-K409A (human) [IgG part: P01857]; assay: cell-based or functional assay
[24] = biological target: CD20 on Daudi and Raji cells (UniProt P11836)
[25] = biological target: CD20 on Daudi and Raji cells (UniProt P11836); remark: listed apart in the source
[26] = biological target: recombinant extracellular domain of EGFR (UniProt P00533); assay: sandwich ELISA: EGFR extracellular domain coated, detection with anti-idiotype 2F2 SAB1.1

| Substance | Bispecific binding (% relative to positive control) [20] [%] | Bispecific binding (% relative to positive control) [21] [%] | Bispecific binding (% relative to positive control) [22] [%] | Bispecific binding (% relative to positive control) [23] [%] | other results |
| --- | --- | --- | --- | --- | --- |
| CH2-CH3 construct G1 | – | – | – | – | Kd [1]: 3 nM; fold-difference (against wild type CH2-CH3 fragment) [1]: 1 fold |
| CH2-CH3 construct G1-K370T | – | – | – | – | Kd [2]: 45 nM; fold-difference (against wild type CH2-CH3 fragment) [2]: 0.07 fold |
| CH2-CH3 construct G1-K409R | – | – | – | – | Kd [3]: 110 nM; fold-difference (against wild type CH2-CH3 fragment) [3]: 0.03 fold; Kd [4]: 110 nM |
| CH2-CH3 construct G1-T350I | – | – | – | – | Kd [5]: 7 nM; fold-difference (against wild type CH2-CH3 fragment) [5]: 0.4 fold |
| CH2-CH3 construct G4 | – | – | – | – | Kd [6]: 48 nM; fold-difference (against wild type CH2-CH3 fragment) [6]: 1 fold |
| CH2-CH3 construct G4-E357T | – | – | – | – | Kd [7]: 41000 nM; fold-difference (against wild type CH2-CH3 fragment) [7]: 0.0012 fold |
| CH2-CH3 construct G4-F405A | – | – | – | – | Kd [8]: 19000 nM; fold-difference (against wild type CH2-CH3 fragment) [8]: 0.0025 fold |
| CH2-CH3 construct G4-F405L | – | – | – | – | Kd [9]: 25000 nM; fold-difference (against wild type CH2-CH3 fragment) [9]: 0.0019 fold |
| CH2-CH3 construct G4-K370E | – | – | – | – | Kd [10]: 2 nM; fold-difference (against wild type CH2-CH3 fragment) [10]: 24 fold |
| CH2-CH3 construct G4-K370Q | – | – | – | – | Kd [11]: 11 nM; fold-difference (against wild type CH2-CH3 fragment) [11]: 4.3 fold |
| CH2-CH3 construct G4-L351K | – | – | – | – | Kd [12]: 740 nM; fold-difference (against wild type CH2-CH3 fragment) [12]: 0.06 fold |
| CH2-CH3 construct G4-R409A | – | – | – | – | Kd [13]: 160 nM; fold-difference (against wild type CH2-CH3 fragment) [13]: 0.3 fold |
| CH2-CH3 construct G4-R409K | – | – | – | – | Kd [14]: 8 nM; fold-difference (against wild type CH2-CH3 fragment) [14]: 6 fold |
| CH2-CH3 construct G4-R409L | – | – | – | – | Kd [15]: 15 nM; fold-difference (against wild type CH2-CH3 fragment) [15]: 3.2 fold |
| CH2-CH3 construct G4-R409M | – | – | – | – | Kd [16]: 3 nM; fold-difference (against wild type CH2-CH3 fragment) [16]: 16 fold |
| CH2-CH3 construct G4-R409T | – | – | – | – | Kd [17]: 720 nM; fold-difference (against wild type CH2-CH3 fragment) [17]: 0.07 fold |
| CH2-CH3 construct G4-R409W | – | – | – | – | Kd [18]: 34000 nM; fold-difference (against wild type CH2-CH3 fragment) [18]: 0.0014 fold |

| Substance | Bispecific binding (% relative to positive control) [20] [%] | Bispecific binding (% relative to positive control) [21] [%] | Bispecific binding (% relative to positive control) [22] [%] | Bispecific binding (% relative to positive control) [23] [%] | other results |
| --- | --- | --- | --- | --- | --- |
| CH2-CH3 construct G4-S364D | – | – | – | – | Kd [19]: 47 nM; fold-difference (against wild type CH2-CH3 fragment) [19]: 1.02 fold |
| IgG1-2F8-D399F (antibody) | 15 | 14 | 15 | 13 | – |
| IgG1-2F8-D399K (antibody) | 46 | 34 | 43 | 40 | – |
| IgG1-2F8-D399R (antibody) | 52 | 38 | 45 | 47 | Fab-arm exchange compared to the positive control, 20° C., 200 min [22]: 85%; Fab-arm exchange efficiency compared to the positive control, 15° C., 200 min [22]: 85% |
| IgG1-2F8-F405I (antibody) | 60 | 39 | 49 | 32 | – |
| IgG1-2F8-F405S (antibody) | 39 | 45 | 51 | 34 | Fab-arm exchange compared to the positive control, 20° C., 200 min [23]: 90%; Fab-arm exchange efficiency compared to the positive control, 15° C., 200 min [23]: 65% |
| IgG1-2F8-F405T (antibody) | 46 | 42 | 47 | 35 | – |
| IgG1-2F8-F405W (antibody) | 18 | 16 | 20 | 17 | – |
| IgG1-2F8-L368D (antibody) | 54 | 41 | 50 | 49 | – |
| IgG1-2F8-L368E (antibody) | 42 | 37 | 38 | 32 | – |
| IgG1-2F8-L368R (antibody) | 91 | 52 | 64 | 55 | Fab-arm exchange efficiency compared to the positive control, 15° C., 200 min [20]: 100% |
| IgG1-2F8-L368S (antibody) | 53 | 37 | 45 | 39 | – |
| IgG1-2F8-L368W (antibody) | 60 | 41 | 56 | 56 | – |
| IgG1-2F8-Y407W (antibody) | 62 | 47 | 53 | 48 | – |
| IgG1-7D8 (from UniProt P01857 1-330) (antibody) | – | – | – | – | EC50 (read off the curve) [24]: 1 µg/mL; EC50 (read off the curve) [25]: 0.5 µg/mL |
| IgG1-7D8-K409R (from UniProt P01857 1-330) (antibody) | – | – | – | – | EC50 (read off the curve) [25]: 0.4 µg/mL |
| bispecific antibody generated by 2-MEA-induced Fab-arm exchange between IgG1-2F8-F405L and IgG1-7D8-K409R (from UniProt P01857 1-330) | – | – | – | – | EC50 (read off the curve) [25]: 2 µg/mL; EC50 (read off the curve) [26]: 0.4 µg/mL |

Continued, in another order:

| Bispecific binding (% relative to positive control) [20] [%] | Bispecific binding (% relative to positive control) [21] [%] | Bispecific binding (% relative to positive control) [22] [%] | Bispecific binding (% relative to positive control) [23] [%] | Substance | other results |
| --- | --- | --- | --- | --- | --- |
| 19 | 10 | 14 | 12 | IgG1-2F8-D399H (antibody) | – |
| 0 | 0 | 0 | 0 | IgG1-2F8-D399Q (antibody) | – |
| 40 | 47 | 48 | 29 | IgG1-2F8-F405K (antibody) | – |
| 43 | 37 | 46 | 36 | IgG1-2F8-F405V (antibody) | – |
| 37 | 25 | 33 | 33 | IgG1-2F8-L368A (antibody) | – |
| 53 | 44 | 53 | 46 | IgG1-2F8-L368G (antibody) | – |
| 29 | 21 | 25 | 26 | IgG1-2F8-L368H (antibody) | – |
| 54 | 43 | 52 | 47 | IgG1-2F8-L368N (antibody) | – |
| 56 | 39 | 51 | 42 | IgG1-2F8-L368T (antibody) | – |
| 51 | 33 | 49 | 42 | IgG1-2F8-L368V (antibody) | – |
| 49 | 49 | 41 | 44 | IgG1-2F8-Y407L (antibody) | – |
| 44 | 1 | 9 | 4 | IgG1-2F8-Y407Q (antibody) | – |
